The values that follow come from publication PMC7541222, “Novel single-domain antibodies against the EGFR domain III epitope exhibit the anti-tumor effect” (Journal of Translational Medicine, 2020).

For assay [1], the target named is T1, EGFR on human cancer cells A549, MCF-7 and DU145 (Homo sapiens, UniProt P00533).
T1 construct: Epidermal growth factor receptor (EGFR, HER1, ERBB1), endogenous on the surface of human cancer cell lines; also called HER1; ERBB1; source: endogenous, on live A549, MCF-7 and DU145 cells
The assay is described as follows: flow cytometry on cells; live cells (A549, MCF-7, DU145) in ice-cold PBS with BSA incubated with purified sdAbs; detected with protein A-FITC. The settings on record: one partner purified. On the technique in general: In flow cytometry, cells or beads pass a laser one at a time.

The target in assay [2] is T2, EndoF1 (Elizabethkingia meningoseptica (assumed), UniProt P36911).
T2 construct: EndoF1, unrelated antigen used as negative control
T2 sequence (P36911 51-339): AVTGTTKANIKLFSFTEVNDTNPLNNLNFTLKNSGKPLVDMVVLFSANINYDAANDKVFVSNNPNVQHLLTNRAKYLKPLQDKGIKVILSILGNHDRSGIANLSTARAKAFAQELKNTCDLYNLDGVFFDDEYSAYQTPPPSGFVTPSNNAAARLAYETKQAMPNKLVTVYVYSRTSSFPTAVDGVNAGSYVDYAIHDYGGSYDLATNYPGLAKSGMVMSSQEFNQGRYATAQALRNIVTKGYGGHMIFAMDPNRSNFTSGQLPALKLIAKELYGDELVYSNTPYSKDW
The assay is described as follows: ELISA; wells of 96-well plates coated with EGFR protein fragment or unrelated antigens; purified sdAbs added; protein A-HRP, TMB, absorbance at 450 nm. The settings on record: both partners purified. For orientation: An ELISA detects its analyte on a solid surface through an enzyme-linked reagent.

The target in assay [3] is T3, BMP2 (Homo sapiens (assumed), UniProt P12643).
T3 construct: BMP2, unrelated antigen used as negative control
T3 sequence (P12643 24-396): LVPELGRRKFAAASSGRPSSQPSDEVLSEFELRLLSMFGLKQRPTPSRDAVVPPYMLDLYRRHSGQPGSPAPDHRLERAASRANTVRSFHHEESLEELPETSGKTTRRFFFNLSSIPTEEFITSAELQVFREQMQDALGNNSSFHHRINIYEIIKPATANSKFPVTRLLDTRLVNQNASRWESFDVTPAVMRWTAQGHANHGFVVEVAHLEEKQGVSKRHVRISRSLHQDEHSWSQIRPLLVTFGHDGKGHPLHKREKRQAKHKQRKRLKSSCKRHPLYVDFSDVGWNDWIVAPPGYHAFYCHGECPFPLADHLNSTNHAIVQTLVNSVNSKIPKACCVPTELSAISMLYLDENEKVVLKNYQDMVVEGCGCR
The assay is described as above. The settings on record: both partners purified.

Assay [4] concerns the target T4, FGF21 (Homo sapiens (assumed), UniProt Q9NSA1).
T4 construct: FGF21, unrelated antigen used as negative control
Described as above. The settings on record: both partners purified.

Assay [5] addresses T5, EGFR complete extracellular domain protein (Homo sapiens (assumed), UniProt P00533).
T5 construct: Epidermal growth factor receptor (EGFR, HER1, ERBB1), complete extracellular domain, bought; also called EGFR complete extracellular fragment; EGFR-ECD; source: bought: Shanghai Bootech BioSci. and Technol
As to the kind of experiment: far-Western, overlay or dot blot; Western blotting: 0.5 ug EGFR complete extracellular domain separated by SDS-PAGE, transferred to PVDF; blot incubated with the sdAbs, then protein A-HRP, chemiluminescence. The conditions noted are these: both partners purified. Background: In western blotting, separated proteins are transferred to a membrane and probed.

Assay [6] deals with T2, EndoF1. As to the kind of experiment: ELISA; monoclonal phage ELISA: wells of 96-well plates coated with EGFR protein fragment or unrelated antigens, blocked with 2% BSA; phage clones added; anti-M13-HRP, TMB, absorbance at 450 nm. The settings on record: one partner purified.
For assay [7], the target named is T3, BMP2. The description is as above. The conditions noted are these: one partner purified.
Assay [8] concerns the target T4, FGF21. Described as above. The conditions noted are these: one partner purified.

T4 sequence (Q9NSA1 29-209): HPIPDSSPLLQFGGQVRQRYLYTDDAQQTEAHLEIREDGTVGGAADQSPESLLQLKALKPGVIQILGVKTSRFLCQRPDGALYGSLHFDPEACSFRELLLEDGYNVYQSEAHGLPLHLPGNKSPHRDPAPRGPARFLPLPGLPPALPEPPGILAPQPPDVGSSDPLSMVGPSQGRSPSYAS

B1: anti-EGFR single-domain antibody aEG2E12 (purified) (VHH)
VHH: QVQLLESGGGLVQPGGSLRLSCAASGYSSNNEFMAWVRQAPGKGLEWVSAISTRNGSTYYADSVKGRFTISRDNSKNTLYLQMNSLRAEDTAVYYCAGVSYRRPQQLKYWGQGTLVTVSS
notes: fully human VH domain on the V3-23/D47 framework with diversified CDR1-3; Fully human VH-only single-domain antibody (about 15 kDa), selected from the Source BioScience human domain antibody library; subcloned NcoI/NotI into pET22b(+); also called anti-EGFR sdAb; source: E. coli BL21 (DE3), pET22b(+), purified (Ni-NTA)
Take B1: the binding result in assay [1] is reported as “binds”; with EndoF1 [2], “no binding”; with BMP2 [3] it was “no binding”; in the assay with FGF21 [4] it was “no binding”; in assay [5], “binds”.

B2: aEG2E12 displayed on phage (phage clone) (VHH)
VHH: QVQLLESGGGLVQPGGSLRLSCAASGYSSNNEFMAWVRQAPGKGLEWVSAISTRNGSTYYADSVKGRFTISRDNSKNTLYLQMNSLRAEDTAVYYCAGVSYRRPQQLKYWGQGTLVTVSS
notes: detected by anti-M13-HRP; source: E. coli TG1, phagemid pR2, rescued with M13 helper phage, phage clone
Regarding B2, the binding result in the assay with EndoF1 [6], with BMP2 [7] and with FGF21 [8] was “no binding” each time.

B3: anti-EGFR single-domain antibody aEG2C7 (purified) (VHH)
VHH: QVQLLESGGGLVQPGGSLRLSCAASGFTFNNEIMAWVRQAPGKGLEWVSSIAANNGSTYYADSVKGRFTISRDNSKNTLYLQMNSLRAEDTAVYYCARYAAEPHTYSMGNKSLRYWGQGTLVTVSS
notes: as for B1
In the case of B3, the binding result in assay [1] is recorded as “binds”; with EndoF1 [2], “no binding”; in the assay with BMP2 [3], “no binding”; with FGF21 [4] it was “no binding”; in assay [5], “binds”.

B4: aEG2C7 displayed on phage (phage clone) (VHH)
VHH: QVQLLESGGGLVQPGGSLRLSCAASGFTFNNEIMAWVRQAPGKGLEWVSSIAANNGSTYYADSVKGRFTISRDNSKNTLYLQMNSLRAEDTAVYYCARYAAEPHTYSMGNKSLRYWGQGTLVTVSS
notes: as for B2
Turning to B4, the binding result with EndoF1 [6], in the assay with BMP2 [7] and in the assay with FGF21 [8] was “no binding” in each case.

B5: anti-EGFR single-domain antibody aEG6B2 (purified) (VHH)
VHH: QVQLLESGGGLVQPGGSLRLSCAASGFNVNPKYMTWVRQAPGKGLEWVSSIRSPGGSTYYADSVKGRFTISRDNSKNTLYLQMNSLRAEDTAVYYCASVSRDEKYMRFWGQGTLVTVSS
notes: as for B1
On to B5, for which the binding result in assay [1] is “binds”; in the assay with EndoF1 [2], “no binding”; in the assay with BMP2 [3] it was “no binding”; with FGF21 [4], “no binding”; in assay [5] it was “binds”.

B6: aEG6B2 displayed on phage (phage clone) (VHH)
VHH: QVQLLESGGGLVQPGGSLRLSCAASGFNVNPKYMTWVRQAPGKGLEWVSSIRSPGGSTYYADSVKGRFTISRDNSKNTLYLQMNSLRAEDTAVYYCASVSRDEKYMRFWGQGTLVTVSS
notes: as for B2
Consider B6, for which the binding result with EndoF1 [6], in the assay with BMP2 [7] and in the assay with FGF21 [8] was “no binding” in each case.

B7: anti-EGFR single-domain antibody aEG1B4 (purified) (VHH)
VHH: QVQLLESGGGLVQPGGSLRLSCAASGVNVSNEVMSWVRQAPGKGLEWVSTIANHSGSTYYADSVKGRFTISRDNSKNTLYLQMNSLRAEDTAVYYCATLYSGATKQLEYWGQGTLVTVSS
notes: as for B1
For B7, the binding result was “binds” in assay [1]; “no binding” with EndoF1 [2]; “no binding” in the assay with BMP2 [3]; “no binding” with FGF21 [4]; “binds” in assay [5].

B8: aEG1B4 displayed on phage (phage clone) (VHH)
VHH: QVQLLESGGGLVQPGGSLRLSCAASGVNVSNEVMSWVRQAPGKGLEWVSTIANHSGSTYYADSVKGRFTISRDNSKNTLYLQMNSLRAEDTAVYYCATLYSGATKQLEYWGQGTLVTVSS
notes: as for B2
On to B8, for which the binding result with EndoF1 [6], with BMP2 [7] and in the assay with FGF21 [8] was “no binding” throughout.

B9: anti-EGFR single-domain antibody aEG4D9 (purified) (VHH)
VHH: QVQLLESGGGLVQPGGSLRLSCAASGDMLSPDNMTWVRQAPGKGLEWVSTIHKTDGSTYYADSVKGRFTISRDNSKNTLYLQMNSLRAEDTAVYYCAGLRSRGLSSKYLEYWGQGTLVTVSS
notes: as for B1
In the case of B9, the binding result in assay [1] is reported as “binds”; with EndoF1 [2], “no binding”; with BMP2 [3] it was “no binding”; with FGF21 [4] it was “no binding”; in assay [5] it was “binds”.

B10: aEG4D9 displayed on phage (phage clone) (VHH)
VHH: QVQLLESGGGLVQPGGSLRLSCAASGDMLSPDNMTWVRQAPGKGLEWVSTIHKTDGSTYYADSVKGRFTISRDNSKNTLYLQMNSLRAEDTAVYYCAGLRSRGLSSKYLEYWGQGTLVTVSS
notes: as for B2
As for B10, the binding result with EndoF1 [6], with BMP2 [7] and in the assay with FGF21 [8] was “no binding” throughout.
